# Measurements taken from the supplement of paper PMC9112550, “Optimization of the antimicrobial peptide Bac7 by deep mutational scanning” (BMC Biology, 2022).
# Tested on: Escherichia coli TOP10
# Test: shrunken log2 fold change of peptide-encoding DNA abundance (4.5 h post-induction vs induction); higher = less antimicrobial activity (less host growth inhibition)
# Conditions: time post-induction: 4.5 h; library: site-saturation at positions 5, 18, 19, 20
# 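Further: peptides expressed intracellularly from a pBAD plasmid library in pooled LB shake-flask culture, induced with 0.3% L-arabinose, DNA abundance read by NGS, three biological replicates, DESeq2 with apeglm shrinkage.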
row,Sequence,shrunken log2 fold change
1,RRIRQRPPRLPRPRPRPHMKPRP,-0.0294
2,RRIRRRPPRLPRPRPRPTTCPRP,0.379
3,RRIRFRPPRLPRPRPRPRRWPRP,0.934
4,RRIRYRPPRLPRPRPRPLYTPRP,-0.795
5,RRIRRRPPRLPRPRPRPLDYPRP,-0.324
6,RRIRTRPPRLPRPRPRPHHPPRP,-0.135
7,RRIRFRPPRLPRPRPRPLVQPRP,-0.052
8,RRIRQRPPRLPRPRPRPGWMPRP,-0.115
9,RRIRHRPPRLPRPRPRPQAEPRP,-0.0254
10,RRIRPRPPRLPRPRPRPWSRPRP,0.298
11,RRIRERPPRLPRPRPRPITFPRP,-0.338
12,RRIRQRPPRLPRPRPRPYKIPRP,-0.568
13,RRIRHRPPRLPRPRPRPIHIPRP,-0.733
14,RRIRVRPPRLPRPRPRPFGAPRP,0.258
15,RRIRSRPPRLPRPRPRPLWTPRP,0.0886
16,RRIRVRPPRLPRPRPRPCIVPRP,-0.0169
17,RRIRCRPPRLPRPRPRPEHEPRP,0.188
18,RRIRVRPPRLPRPRPRPDMGPRP,-0.0133
19,RRIRMRPPRLPRPRPRPTMNPRP,0.0381
20,RRIRFRPPRLPRPRPRPALPPRP,0.0544
21,RRIRERPPRLPRPRPRPINRPRP,-0.017
22,RRIRYRPPRLPRPRPRPWTDPRP,-0.038
23,RRIRKRPPRLPRPRPRPSNWPRP,-0.00865
24,RRIRDRPPRLPRPRPRPMFDPRP,0.894
25,RRIRIRPPRLPRPRPRPRIYPRP,0.00994

row,Sequence,shrunken log2 fold change
1,RRIRRRPPRLPRPRPRPIWKPRP,-0.184
2,RRIRMRPPRLPRPRPRPESFPRP,0.0441
3,RRIRERPPRLPRPRPRPYYDPRP,-0.362
4,RRIRHRPPRLPRPRPRPHRMPRP,-0.46
5,RRIRRRPPRLPRPRPRPLFRPRP,0.109
6,RRIRWRPPRLPRPRPRPYEHPRP,-0.12
7,RRIRKRPPRLPRPRPRPPSGPRP,1.1
8,RRIRGRPPRLPRPRPRPMQHPRP,1.24
9,RRIRVRPPRLPRPRPRPMNLPRP,-0.0749
10,RRIRRRPPRLPRPRPRPAEWPRP,0.136
11,RRIRARPPRLPRPRPRPLWPPRP,0.646
12,RRIRMRPPRLPRPRPRPNPLPRP,0.567
13,RRIRSRPPRLPRPRPRPLYNPRP,-0.344
14,RRIRTRPPRLPRPRPRPDIWPRP,-0.392
15,RRIRVRPPRLPRPRPRPSQWPRP,0.0963
16,RRIRVRPPRLPRPRPRPIPRPRP,0.0796
17,RRIRIRPPRLPRPRPRPDGYPRP,-0.00133
18,RRIRYRPPRLPRPRPRPNVRPRP,-0.0227
19,RRIRWRPPRLPRPRPRPMVCPRP,0.199
20,RRIRKRPPRLPRPRPRPAKKPRP,1.06
21,RRIRLRPPRLPRPRPRPEPCPRP,0.0808
22,RRIRFRPPRLPRPRPRPKKKPRP,-0.00928
23,RRIRDRPPRLPRPRPRPKHSPRP,-0.211
24,RRIRFRPPRLPRPRPRPSQGPRP,-0.117
25,RRIRLRPPRLPRPRPRPQSWPRP,-0.0792

row,Sequence,shrunken log2 fold change
1,RRIRGRPPRLPRPRPRPGHLPRP,0.0503
2,RRIRFRPPRLPRPRPRPPSSPRP,0.208
3,RRIRRRPPRLPRPRPRPGWHPRP,0.176
4,RRIRERPPRLPRPRPRPWHHPRP,-0.326
5,RRIRVRPPRLPRPRPRPYIMPRP,-0.937
6,RRIRSRPPRLPRPRPRPQCGPRP,-0.129
7,RRIRARPPRLPRPRPRPQVVPRP,-0.0726
8,RRIRRRPPRLPRPRPRPNSCPRP,-0.0116
9,RRIRPRPPRLPRPRPRPYAIPRP,-0.219
10,RRIRMRPPRLPRPRPRPLYGPRP,-0.281
11,RRIRLRPPRLPRPRPRPVHMPRP,-0.0691
12,RRIRYRPPRLPRPRPRPWQLPRP,-0.647
13,RRIRVRPPRLPRPRPRPRRGPRP,0.579
14,RRIRWRPPRLPRPRPRPHIPPRP,-0.227
15,RRIRPRPPRLPRPRPRPVGAPRP,0.561
16,RRIRNRPPRLPRPRPRPNKEPRP,-0.0761
17,RRIRSRPPRLPRPRPRPQWHPRP,-0.26
18,RRIRRRPPRLPRPRPRPWCDPRP,0.0743
19,RRIRKRPPRLPRPRPRPINFPRP,-0.962
20,RRIRKRPPRLPRPRPRPYYMPRP,-0.405
21,RRIRARPPRLPRPRPRPTKIPRP,0.272
22,RRIRYRPPRLPRPRPRPMWMPRP,-0.00149
23,RRIRNRPPRLPRPRPRPQRHPRP,-0.0566
24,RRIRGRPPRLPRPRPRPSHTPRP,-0.102
25,RRIRHRPPRLPRPRPRPHAKPRP,-0.00884

row,Sequence,shrunken log2 fold change
1,RRIRPRPPRLPRPRPRPEIRPRP,0.0106
2,RRIRSRPPRLPRPRPRPYGQPRP,-0.134
3,RRIRKRPPRLPRPRPRPWEEPRP,-0.000921
4,RRIRYRPPRLPRPRPRPFQQPRP,-0.0176
5,RRIRDRPPRLPRPRPRPTCTPRP,0.53
6,RRIRKRPPRLPRPRPRPHNHPRP,-0.533
7,RRIRSRPPRLPRPRPRPYKHPRP,-0.734
8,RRIRMRPPRLPRPRPRPLRNPRP,1.17
9,RRIRGRPPRLPRPRPRPEQIPRP,0.438
10,RRIRWRPPRLPRPRPRPPEDPRP,0.235
11,RRIRKRPPRLPRPRPRPEQHPRP,0.586
12,RRIRIRPPRLPRPRPRPDTAPRP,-0.232
13,RRIRMRPPRLPRPRPRPLMHPRP,0.341
14,RRIRDRPPRLPRPRPRPIWTPRP,0.0557
15,RRIRSRPPRLPRPRPRPLGRPRP,0.351
16,RRIRGRPPRLPRPRPRPEWIPRP,0.142
17,RRIRWRPPRLPRPRPRPAPDPRP,1.14
18,RRIRARPPRLPRPRPRPCYNPRP,-0.456
19,RRIRKRPPRLPRPRPRPHMLPRP,-0.105
20,RRIRVRPPRLPRPRPRPPRTPRP,0.331
21,RRIRWRPPRLPRPRPRPATLPRP,-0.0879
22,RRIRTRPPRLPRPRPRPTHSPRP,0.384
23,RRIRNRPPRLPRPRPRPMMDPRP,-0.425
24,RRIRQRPPRLPRPRPRPHHFPRP,-0.0176
25,RRIRPRPPRLPRPRPRPPRKPRP,0.79

row,Sequence,shrunken log2 fold change
1,RRIRNRPPRLPRPRPRPIDCPRP,-0.248
2,RRIRQRPPRLPRPRPRPPGTPRP,0.617
3,RRIRPRPPRLPRPRPRPMKWPRP,0.291
4,RRIRDRPPRLPRPRPRPEEHPRP,0.937
5,RRIRFRPPRLPRPRPRPYMMPRP,-0.34
6,RRIRIRPPRLPRPRPRPKGAPRP,0.36
7,RRIRNRPPRLPRPRPRPVQFPRP,-0.124
8,RRIRNRPPRLPRPRPRPENNPRP,-0.106
9,RRIRPRPPRLPRPRPRPLQDPRP,0.151
10,RRIRRRPPRLPRPRPRPFRSPRP,-0.0534
11,RRIRQRPPRLPRPRPRPQFHPRP,-0.591
12,RRIRSRPPRLPRPRPRPEHPPRP,0.166
13,RRIRPRPPRLPRPRPRPCKCPRP,-0.275
14,RRIRLRPPRLPRPRPRPDGFPRP,0.052
15,RRIRARPPRLPRPRPRPTFSPRP,0.233
16,RRIRVRPPRLPRPRPRPPADPRP,0.565
17,RRIRGRPPRLPRPRPRPRYSPRP,-0.173
18,RRIRDRPPRLPRPRPRPWYWPRP,0.000762
19,RRIRERPPRLPRPRPRPDISPRP,0.0621
20,RRIRERPPRLPRPRPRPAFNPRP,0.495
21,RRIRIRPPRLPRPRPRPHPAPRP,-0.516
22,RRIRPRPPRLPRPRPRPIVLPRP,-0.772
23,RRIRGRPPRLPRPRPRPYADPRP,0.0582
24,RRIRWRPPRLPRPRPRPYHDPRP,-0.868
25,RRIRGRPPRLPRPRPRPCCKPRP,-0.108

row,Sequence,shrunken log2 fold change
1,RRIRMRPPRLPRPRPRPIIQPRP,-0.402
2,RRIRNRPPRLPRPRPRPRWSPRP,-0.054
3,RRIRWRPPRLPRPRPRPDVKPRP,-0.26
4,RRIRKRPPRLPRPRPRPSRSPRP,0.0164
5,RRIRSRPPRLPRPRPRPASIPRP,7.54e-05
6,RRIRERPPRLPRPRPRPICEPRP,0.0105
7,RRIRNRPPRLPRPRPRPTEWPRP,0.0839
8,RRIRRRPPRLPRPRPRPEFTPRP,0.0132
9,RRIRRRPPRLPRPRPRPQDVPRP,-0.108
10,RRIRHRPPRLPRPRPRPAAVPRP,0.0752
11,RRIRGRPPRLPRPRPRPMPTPRP,0.612
12,RRIRNRPPRLPRPRPRPKPAPRP,0.601
13,RRIRDRPPRLPRPRPRPMNNPRP,-0.424
14,RRIRIRPPRLPRPRPRPYWKPRP,-0.0289
15,RRIRLRPPRLPRPRPRPKAYPRP,-0.402
16,RRIRGRPPRLPRPRPRPQVDPRP,0.266
17,RRIRTRPPRLPRPRPRPDKFPRP,0.116
18,RRIRTRPPRLPRPRPRPTCLPRP,-0.216
19,RRIRQRPPRLPRPRPRPWTSPRP,0.0602
20,RRIRPRPPRLPRPRPRPEGSPRP,0.0654
21,RRIRTRPPRLPRPRPRPSQKPRP,0.039
22,RRIRVRPPRLPRPRPRPCALPRP,-0.115
23,RRIRYRPPRLPRPRPRPHWEPRP,-0.276
24,RRIRWRPPRLPRPRPRPRGRPRP,0.704
25,RRIRYRPPRLPRPRPRPGEIPRP,-0.0481
